Drawing on patent publication US20100221248A1, this text covers Kd for 1 molecule.

A word on the Kd: it is the constant that tells how readily two partners part at equilibrium. Lower therefore signals tighter binding.

The target of assay [1] is human FcγRIIIA, 158F 176V allele, soluble (human) (UniProt P08637). Put plainly: SPR (Biacore T100), steady state, MBP-Fn3 immobilized, soluble FcR injected. Background: In SPR one partner is held on a chip, and binding of the other changes the refractive index at the surface.
The target in assay [2] is human FcγRIIIA, 158F 176F allele, soluble (human) (UniProt P08637). Described as above.

B1: MBP-IIIA537 (designed binder, not shown: large carriers)
chain: LGENLYFQSVSDVPRDLEVVVATPTSLLINWDLPFSDSYRITYGETGGNSPVQGFTVPGTESIATISGLKPGVDYTITVYAVASSGSNSYPISINYRTEIDKPSQ
As for B1, the results for the equilibrium dissociation constant (Kd) in assay [1] and in assay [2] were 3.9 µM and 4.9 µM, respectively.
